This data set concerns the target Taq DNA polymerase (UniProt P19821 P19821:1-832). The data set is described as follows: BLI; 50 mM NaCl, 1.5 mM MgCl2, 50 mM Tris-HCl pH 8.5; immobilized biotin-aptamer; sensorgram only. The settings on record: tags: GoTaq (Promega); label: biotin on aptamer for BLI; 20 bp duplex with 20 nt inverter overhang, conserved region CAATGTACAGTATTG

Taq DNA polymerase, sequence (P19821 whole entry, one chain of several): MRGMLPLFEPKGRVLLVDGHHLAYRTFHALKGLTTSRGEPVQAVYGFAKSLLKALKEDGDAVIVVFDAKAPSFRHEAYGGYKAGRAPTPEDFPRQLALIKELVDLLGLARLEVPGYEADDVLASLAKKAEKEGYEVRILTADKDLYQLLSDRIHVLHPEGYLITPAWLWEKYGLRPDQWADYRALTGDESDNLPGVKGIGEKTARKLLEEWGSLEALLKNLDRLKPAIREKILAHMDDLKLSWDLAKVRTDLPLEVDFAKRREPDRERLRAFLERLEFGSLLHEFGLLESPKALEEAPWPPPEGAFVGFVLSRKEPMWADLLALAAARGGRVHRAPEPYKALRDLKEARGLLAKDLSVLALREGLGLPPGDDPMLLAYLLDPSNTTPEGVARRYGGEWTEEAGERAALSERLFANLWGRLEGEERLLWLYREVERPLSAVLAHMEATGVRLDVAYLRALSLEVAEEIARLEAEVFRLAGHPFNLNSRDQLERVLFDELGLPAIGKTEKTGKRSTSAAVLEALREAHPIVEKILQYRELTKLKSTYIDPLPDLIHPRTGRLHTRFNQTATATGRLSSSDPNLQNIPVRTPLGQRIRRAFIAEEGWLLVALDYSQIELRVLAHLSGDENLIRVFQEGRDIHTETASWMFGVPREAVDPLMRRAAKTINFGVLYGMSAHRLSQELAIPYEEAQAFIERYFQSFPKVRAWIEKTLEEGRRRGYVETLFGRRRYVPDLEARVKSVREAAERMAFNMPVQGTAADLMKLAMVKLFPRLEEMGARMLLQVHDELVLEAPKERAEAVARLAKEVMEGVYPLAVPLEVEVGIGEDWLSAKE

B1: HPV16 L2 aptamer/inverter recognition nanostructure (structured_DNA)
DNA 1: AAGTATCTGTAATAAAGTCACAATGTACAGTATTG
DNA 2: TGACTTTATTACAGATACTTCTACAACCCCGGTACCATCT
On to B1, for which the binding result is “binds”.

Source of the values: patent publication US20210130870, “VISUAL AND MODULAR DETECTION OF NUCLEIC ACIDS WITH ENZYME-ASSISTED NANOTECHNOLOGY” (National University of Singapore, published 2021).
